Laboratory results reported in US20240018255A1.

Tests used:
[1] = molecular target: SIRPα V4 fusion Fc (mouse IgG2a) (human; mouse); test: ELISA, plate coated with SIRPα V4-Fc (mouse IgG2a), anti-hFab secondary, OD450
[2] = molecular target: SIRPα V6 fusion Fc (mouse IgG2a) (human; mouse); test: ELISA, plate coated with SIRPα V6-Fc (mouse IgG2a), anti-hFab secondary, OD450
[3] = molecular target: SIRPα V9 fusion Fc (mouse IgG2a) (human; mouse); test: ELISA, plate coated with SIRPα V9-Fc (mouse IgG2a), anti-hFab secondary, OD450
[4] = molecular target: SIRPα V1 fusion Fc (mouse IgG2a) (human; mouse); test: ELISA, plate coated with SIRPα V1-Fc (mouse IgG2a), anti-hFab secondary, OD450; unit from the axis Log(Conc.(nM))
[5] = molecular target: SIRPα V5 fusion Fc (mouse IgG2a) (human; mouse); test: ELISA, plate coated with SIRPα V5-Fc (mouse IgG2a), anti-hFab secondary, OD450; unit from the axis Log(Conc.(nM))
[6] = molecular target: SIRPα V2 fusion Fc (mouse IgG2a) (human; mouse); test: ELISA, plate coated with SIRPα V2-Fc (mouse IgG2a), anti-hFab secondary, OD450; fit value of a flat curve, see non_binding
[7] = molecular target: SIRPα V10 fusion Fc (mouse IgG2a) (human; mouse); test: ELISA, plate coated with SIRPα V10-Fc (mouse IgG2a), anti-hFab secondary, OD450; fit value of a flat curve, see non_binding
Chain of SIRPα V10 fusion Fc (mouse IgG2a) (human; mouse) (chain, as listed by the source limits assumed): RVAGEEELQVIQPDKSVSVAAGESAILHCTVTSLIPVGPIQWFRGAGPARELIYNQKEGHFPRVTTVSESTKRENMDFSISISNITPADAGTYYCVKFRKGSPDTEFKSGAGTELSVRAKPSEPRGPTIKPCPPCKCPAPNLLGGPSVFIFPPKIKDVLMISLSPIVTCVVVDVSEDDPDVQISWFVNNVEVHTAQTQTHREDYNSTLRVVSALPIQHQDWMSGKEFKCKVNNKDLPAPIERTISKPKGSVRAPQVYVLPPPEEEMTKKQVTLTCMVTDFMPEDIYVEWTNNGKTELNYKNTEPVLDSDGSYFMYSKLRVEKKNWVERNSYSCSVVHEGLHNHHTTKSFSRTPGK

Chain of SIRPα V1 fusion Fc (mouse IgG2a) (human; mouse) (chain, as listed by the source limits assumed): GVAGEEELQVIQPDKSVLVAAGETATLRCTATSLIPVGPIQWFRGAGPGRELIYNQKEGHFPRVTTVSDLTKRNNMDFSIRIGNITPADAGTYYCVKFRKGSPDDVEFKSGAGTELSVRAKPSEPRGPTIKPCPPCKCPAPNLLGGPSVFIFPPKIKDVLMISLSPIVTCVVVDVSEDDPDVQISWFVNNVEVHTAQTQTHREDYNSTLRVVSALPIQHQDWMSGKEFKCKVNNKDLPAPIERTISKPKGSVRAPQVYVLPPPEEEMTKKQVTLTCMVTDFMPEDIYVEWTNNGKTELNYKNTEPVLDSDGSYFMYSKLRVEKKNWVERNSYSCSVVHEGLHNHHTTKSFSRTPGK
Chain of SIRPα V2 fusion Fc (mouse IgG2a) (human; mouse) (chain, as listed by the source limits assumed): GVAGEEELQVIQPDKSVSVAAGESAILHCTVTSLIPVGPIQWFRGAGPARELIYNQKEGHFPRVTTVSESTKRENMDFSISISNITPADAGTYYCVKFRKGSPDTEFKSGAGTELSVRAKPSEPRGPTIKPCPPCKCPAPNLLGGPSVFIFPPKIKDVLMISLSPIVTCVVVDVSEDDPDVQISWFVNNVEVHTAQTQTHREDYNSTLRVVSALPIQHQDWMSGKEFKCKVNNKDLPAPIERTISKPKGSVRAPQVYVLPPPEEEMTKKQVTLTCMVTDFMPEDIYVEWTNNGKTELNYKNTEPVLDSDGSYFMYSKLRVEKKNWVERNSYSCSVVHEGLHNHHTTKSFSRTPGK
Chain of SIRPα V4 fusion Fc (mouse IgG2a) (human; mouse) (chain, as listed by the source limits assumed): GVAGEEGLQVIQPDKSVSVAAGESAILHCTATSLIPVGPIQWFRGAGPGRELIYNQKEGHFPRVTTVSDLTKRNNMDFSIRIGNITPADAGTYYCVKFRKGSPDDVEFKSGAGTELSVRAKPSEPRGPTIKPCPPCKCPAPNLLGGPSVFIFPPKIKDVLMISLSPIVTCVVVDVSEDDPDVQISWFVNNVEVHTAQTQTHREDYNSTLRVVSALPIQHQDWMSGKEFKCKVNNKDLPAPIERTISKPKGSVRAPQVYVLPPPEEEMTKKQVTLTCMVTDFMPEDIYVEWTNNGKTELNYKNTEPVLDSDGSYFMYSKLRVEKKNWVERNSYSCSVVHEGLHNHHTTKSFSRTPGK
Chain of SIRPα V9 fusion Fc (mouse IgG2a) (human; mouse) (chain, as listed by the source limits assumed): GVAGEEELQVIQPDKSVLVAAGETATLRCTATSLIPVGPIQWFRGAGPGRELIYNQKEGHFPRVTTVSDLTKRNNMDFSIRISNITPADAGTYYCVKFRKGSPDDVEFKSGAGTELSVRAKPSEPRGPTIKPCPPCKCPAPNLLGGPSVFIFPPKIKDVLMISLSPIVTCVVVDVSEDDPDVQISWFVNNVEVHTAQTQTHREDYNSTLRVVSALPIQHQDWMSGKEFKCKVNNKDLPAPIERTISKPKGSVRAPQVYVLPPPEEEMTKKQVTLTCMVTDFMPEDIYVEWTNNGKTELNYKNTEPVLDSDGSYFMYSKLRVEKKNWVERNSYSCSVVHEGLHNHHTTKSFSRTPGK
Chain of SIRPα V5 fusion Fc (mouse IgG2a) (human; mouse) (chain, as listed by the source limits assumed): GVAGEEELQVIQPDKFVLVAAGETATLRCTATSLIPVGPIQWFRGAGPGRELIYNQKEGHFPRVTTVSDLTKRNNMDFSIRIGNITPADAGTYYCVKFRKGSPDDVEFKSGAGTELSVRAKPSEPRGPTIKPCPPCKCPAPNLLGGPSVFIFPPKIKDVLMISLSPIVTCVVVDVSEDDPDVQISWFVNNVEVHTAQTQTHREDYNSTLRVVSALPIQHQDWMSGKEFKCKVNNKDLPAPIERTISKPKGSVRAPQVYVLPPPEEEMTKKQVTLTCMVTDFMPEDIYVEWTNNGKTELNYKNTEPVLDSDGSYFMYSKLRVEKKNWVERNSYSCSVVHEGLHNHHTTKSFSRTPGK
Chain of SIRPα V6 fusion Fc (mouse IgG2a) (human; mouse) (chain, as listed by the source limits assumed): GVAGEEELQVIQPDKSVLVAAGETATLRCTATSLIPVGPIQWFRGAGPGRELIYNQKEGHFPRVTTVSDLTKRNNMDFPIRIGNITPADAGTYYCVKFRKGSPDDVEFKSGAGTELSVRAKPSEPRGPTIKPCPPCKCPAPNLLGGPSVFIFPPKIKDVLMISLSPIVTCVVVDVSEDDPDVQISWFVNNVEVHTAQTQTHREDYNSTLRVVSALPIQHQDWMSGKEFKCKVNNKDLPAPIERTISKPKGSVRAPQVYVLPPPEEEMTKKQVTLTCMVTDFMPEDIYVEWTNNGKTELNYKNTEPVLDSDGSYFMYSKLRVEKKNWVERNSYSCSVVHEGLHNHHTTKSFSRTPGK

B1: anti-SIRPα antibody 18D5 of OSE Company (antibody, from a related filing, V domains shown)
VH: QVQLQQPGAELVRPGSSVKLSCKASGYTFTSYWVHWVKQRPIQGLEWIGNIDPSDSDTHYNQKFKDKASLTVDKSSSTAYMQLSSLTFEDSAVYYCVRGGTGTMAWFAYWGQGTLVTVSA
VL: DVVMTQTPLSLPVSLGDQASISCRSSQSLVHSYGNTYLYWYLQKPGQSPKLLIYRVSNRFSGVPDRFSGSGSGTDFTLKISRVEAEDLGVYFCFQGTHVPYTFGSGTKLEIKR
Work on B1 yielded an EC50 (read off the curve) [1] of 0.1 nM, an EC50 (read off the curve) [2] of 0.1 nM and an EC50 (read off the curve) [3] of 0.2 nM. For the same binder, the EC50 [4] was 0.154 nM, the EC50 [5] was 0.13 nM and the EC50 [6] was 0.0554 nM. It also gave an EC50 [7] of 0.0554 nM.
